Measured values taken from patent US20060093602A1.

Biological target: gp130 on HepG2 B6 cells (UniProt P40189)
Experiment: cell-based or functional assay

gp130 on HepG2 B6 cells, sequence (P40189 23-918 limits assumed): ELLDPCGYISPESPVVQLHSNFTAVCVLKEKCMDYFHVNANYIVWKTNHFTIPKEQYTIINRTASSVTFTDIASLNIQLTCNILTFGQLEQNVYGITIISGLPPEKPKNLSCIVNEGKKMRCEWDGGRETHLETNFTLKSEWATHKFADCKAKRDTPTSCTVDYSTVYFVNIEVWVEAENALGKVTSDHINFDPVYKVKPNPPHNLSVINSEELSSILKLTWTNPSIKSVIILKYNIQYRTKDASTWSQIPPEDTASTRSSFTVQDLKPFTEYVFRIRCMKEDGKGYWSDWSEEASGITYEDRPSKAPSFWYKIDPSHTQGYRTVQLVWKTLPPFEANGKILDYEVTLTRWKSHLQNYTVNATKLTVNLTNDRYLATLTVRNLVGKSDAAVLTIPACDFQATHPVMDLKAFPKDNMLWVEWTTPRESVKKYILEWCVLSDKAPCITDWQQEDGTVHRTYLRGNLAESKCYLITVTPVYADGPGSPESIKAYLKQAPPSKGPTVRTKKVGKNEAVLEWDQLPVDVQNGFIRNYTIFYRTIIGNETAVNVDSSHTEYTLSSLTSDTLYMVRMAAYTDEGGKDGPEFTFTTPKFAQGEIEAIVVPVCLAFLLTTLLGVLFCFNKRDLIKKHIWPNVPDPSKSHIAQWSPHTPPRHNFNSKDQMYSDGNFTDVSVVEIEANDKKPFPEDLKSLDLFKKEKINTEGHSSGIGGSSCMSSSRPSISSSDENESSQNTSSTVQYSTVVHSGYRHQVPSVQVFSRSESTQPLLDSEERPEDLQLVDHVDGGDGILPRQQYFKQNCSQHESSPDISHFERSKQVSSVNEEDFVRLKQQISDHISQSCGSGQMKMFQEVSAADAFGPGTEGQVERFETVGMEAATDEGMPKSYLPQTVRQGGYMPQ

EC50, sPAP, HepG2 B6, Expt 1: 0.0657 µg/mL
EC50, sPAP, HepG2 B6, Expt 2: 0.0549 µg/mL
EC50 as % of wild type, sPAP, HepG2 B6, Expt 1: 269%
EC50 as % of wild type, sPAP, HepG2 B6, Expt 2: 171%
mean EC50 as % of wild type, sPAP, HepG2 B6: 220%
Substance: OSM-GST L13A (from UniProt P08515 1-218) (ligand)
